According to the nanobody polyreactivity screen of Harvey et al. (2022):

Test: yeast display, Sf9 membrane polyspecificity reagent, FACS + sequencing; frameworks hold sequencing errors
In short: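 Nanobodies came from a synthetic yeast display library in Saccharomyces cerevisiae BJ5465, induced with galactose for 36–48 hours and stained for 1 hour at 4 °C with 10% biotinylated, detergent-solubilized Sf9 membrane reagent. Cells were enriched on streptavidin microbeads and then FACS-sorted, with low and high (top ~1%) gates set on anti-HA fluorescence for expression and streptavidin fluorescence for reagent binding. Each polyreactivity label reflects the gate a clone came from. Genes were amplified by colony PCR, sequenced by MiSeq 2 × 250 and filtered by CDR length.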

Row | Sequence | polyreactivity (PSR sort gate)
1 | QVQLVESGGGLVQAGGSLRLSCAASGSTFAFNTKGWYRQAPGKERELVAGISSNGGRTYYADSVKGRFTISRDNAKNTVYLQMNSLKPEDTAVYYCNALRRYVSVRPTKSDDWGQGTQVTVSS | high polyreactivity
2 | QVQLVESGGGLVQAGGSLRLSCAASGSTFAFYAMGWYRQAPGKERELVAAISRSGGRTYYADSVKGRFTISRDNAKNTVYLQMNSLKPEDTAVYYFAAPSSITTGPHREYDYWGQGTQVTVSS | high polyreactivity
3 | QVQLVESGGGLVQAGGSLRLSCAASGSTFAFYAMGWYRQAPGKERELVAAISSSGARTYYADSVKGRFTLSRDNAKNTVYLQMNSLKPEDTAVYYCAAAFYRLYITSYYYWGQGTQVTVSS | high polyreactivity
4 | QVQLVESGGGLVQAGGSLRLSCAASGSTFAGNAMGWYRQAPGKERELVAAITSGTGTHYADSVKGRFTISRDNAKNSVYLQMNSLKPEDTAVYYCAAEVWTWAGIWGYEYWGQGTQVTVSS | low polyreactivity
5 | QVQLVESGGGLVQAGGSLRLSCAASGSTFAGNGMGWYRQAPGKERELVAGIDVTGGSSYYADSVKGRFTISRDNAKNTVYLQMNSLKPEDTAVYYCNTVWYRGGIDYYWGQGTQVTVSS | low polyreactivity
6 | QVQLVESGGGLVQAGGSLRLSCAASGSTFAGYTLGWYRQAPGKERELVAAITSRGGRTYYADSVKGRFTISRDHAKNTVYLQMNSLKPEDTAVYYCAAVSRYYAALMYYWGQGTQVTVSS | high polyreactivity
7 | QVQLVESGGGLVQAGGSLRLSCAASGSTFAINAMGWYRQAPGKERELVAAISSSGSTNYADSVKGRFTISRDNAKNTVYLQMNSLIPEDTAVYYCAADRVWGTPQAYVPSQFDYWGQGTQVTVSS | low polyreactivity
8 | QVQLVESGGGLVQAGGSLRLSCAASGSTFAINAMGWYRQAPGKERELVAAITSGGGTNYADSVKGRFTISRDNAKNTVFLQMISLKPEDTAVYYCYGRVYWYYPMDYWGQGTQVTVSS | low polyreactivity
9 | QVQLVESGGGLVQAGGSLRLSCAASGSTFAKNAMGWYRQAPGKERELVAAITASGGSTYYADSVKGRFTISRDNAKNTVSLQMNSLKPEDTAVYYCAKSSYLTRGSRYDYWGQGTQVTVSS | low polyreactivity
10 | QVQLVESGGGLVQAGGSLRLSCAASGSTFAKYAMGWYRQAPGKERELVAAIRSGGSTNYADSVKGRFTISRDNAKITVYLQMYSLKPEDTAVYYCAAKRDVSRPVYFRNDYWGQGTQVTVSS | low polyreactivity
11 | QVQLVESGGGLVQAGGSLRLSCAASGSTFAKYAMGWYRQAPGKERELVASIRLSGGSTYYADSVKGRFTISRDNAKNPDYLQMNSLNPEDTAVYYFNKQFATFYYGFDYYYWGQGSQVTVSS | low polyreactivity
12 | QVQLVESGGGLVQAGGSLRLSCAASGSTFALYTMGWYRQAPGKERELVAAIRYGGGSTYYADSVKGRFTISRDNAKNTVYLQMNSLKPEDTAVYYCARDLYNLYSGSYYWGQGTQVTVSS | low polyreactivity
13 | QVQLVESGGGLVQAGGSLRLSCAASGSTFAPNALGWSRQAPGKERELVAAIRTNTVSTYYADSVKGRFTISRDNAKNTVYLQMNSLKPEDTEVYYCAAVFSGFYYAYDYWGQGTQVTVSS | high polyreactivity
14 | QVQLVESGGGLVQAGGSLRLSCAASGSTFAPNAMGWYRQAPGKEREFVASITWRGGSTYYADSVKGRFTISRDNAKNTVYLQMNSLKPEDTAVYYCANLKRGFYRLFGFRYDYWGQGTQVTVSS | low polyreactivity
15 | QVQLVESGGGLVQAGGSLRLSCAASGSTFAPNAMGWYRQAPGKERELVAAIRFDTGSTYYADSVKGRFTISRDNAKNTVYLQMNSLKPEDTAVYYCAAYNHYLSESDYWGQGTQVTVSS | low polyreactivity
16 | QVQLVESGGGLVQAGGSLRLSCAASGSTFAPYAMGWYRQAPGKERELVAAIRSSGGSTYYADSVKGRFTISRDNAKNTVYLQMNSLKPEDTAVYYCADDYYTSADYVDYYYWGQGTQVTVSS | low polyreactivity
17 | QVQLVESGGGLVQAGGSLRLSCAASGSTFAQNGLGWYRQAPGKERELVAAITSSGSTNYADSVKGRFTISRDNAKNTVYLQMNSLKPEDTAVYYCAKDVLAPYTRHDYWGQGTQVTVSS | low polyreactivity
18 | QVQLVESGGGLVQAGGSLRLSCAASGSTFASYAMGWYRQAPGKEREFVAAITRSGTSTYYADSVQGRFTISRDNAKNTVYLQMNSLKPEDTAVYYCNATRRTVGFGYWGQGTQVPVSS | high polyreactivity
19 | QVQLVESGGGLVQAGGSLRLSCAASGSTFATNTMGWYRQAPGKERELVARITSSDGSTTYADSVKGRFTISRDNAKNTDYLQMNSLKPEDTAVYYCAAAYGRRWGYDYWGQGTQVTVSS | low polyreactivity
20 | QVQLVESGGGLVQAGGSLRLSCAASGSTFATYAMVWYRQAPGKERELVAAITSGGSTYYADSVKGRFTISRDNAKNTVYLQMNSLKPEDTAVYYCAARSYGWRRATYYKREEYWGQGTQVTVSS | high polyreactivity
21 | QVQLVESGGGLVQAGGSLRLSCAASGSTFATYTMGWYRQAPGKERELVAAISVSGSRTYYADSVKGRFTISRDNAKNTVYLQMNSLKPEDTAVYYCNTLLRPRWSYDYWGQGTQVTVSS | high polyreactivity
22 | QVQLVESGGGLVQAGGSLRLSCAASGSTFAVNAMGWYRQAPGKERELVAAISDSDGSTFYADSVKGRFTISRDNAKNTVYLQMNSLKPEDTAVYYCAATVYRVFRYSYLYYYWGQGTQVTVSS | low polyreactivity

Row | Sequence | polyreactivity (PSR sort gate)
23 | QVQLVESGGGLVQAGGSLRLSCAASGSTFAVNAMGWYRQAPGKERELVAVITSSGGRTYADSVKGRFTISRDNAKNTVYLQMNSLKPEDTAVYYCAAVQGKVRGGYYWGQGTQVTVSS | high polyreactivity
24 | QVQLVESGGGLVQAGGSLRLSCAASGSTFAVYAMGWYRQAPGKERELVAAITRSGGDTYYADSVKGRFTISRDNAKNTVYLQMNSLKPEDTAVYYCAAAPRYGEEYWGQGTQVTVSS | low polyreactivity
25 | QVQLVESGGGLVQAGGSLRLSCAASGSTFAVYAMGWYRQAPGKERELVAAITWSGGSTYYADSVKGRFTISRDNAKNTVYLQMNSLKPEDTAVYYCAATLIYHYWQLFIISTMGYWGQGTQVTVSS | low polyreactivity
26 | QVQLVESGGGLVQAGGSLRLSCAASGSTFAWYAMGWYRQAPGKERELVAAISRTGRTYYADSVKGRFTISRDNAKNSVYLQMNSLKPEDTAVYYCAAKSIYDGFPYYLFDYWGQGTQVTVSS | high polyreactivity
27 | QVQLVESGGGLVQAGGSLRLSCAASGSTFAYNAMGWYRQAPGKERELVAAISFSGGSTYYADSVKGRFTLSRDNAKNTVYLQMNSLKQEDTAVYYCAKRGYPSTNGRQEGYWGQGTQVTVSS | low polyreactivity
28 | QVQLVESGGGLVQAGGSLRLSCAASGSTFAYNAMGWYRQAPGKERELVAAISYGGDDTYYADSVKGRFTISRDNAKNTVYLQMNSLKPEDTAVYYCNARSRTYRSALGNLYHYDYWGQGTQVTVSS | high polyreactivity
29 | QVQLVESGGGLVQAGGSLRLSCAASGSTFAYNDMGWYRQAPGKERELVADIRSGGNTNYADSVKGRFTISRDNAKNTVYLQMNSLKPEDTAVYYCATDGYRIDVYHPDYRYDYWGQCTQVTVSS | low polyreactivity
30 | QVQLVESGGGLVQAGGSLRLSCAASGSTFAYNDMGWYRQAPGKETELVADIRSGGNTNYADSVKGRFTISRDNAKNTVYLQMNSLKPEDTAVYYCATDGYRFDVYHPDYRYDYWGQGTQVTVSS | low polyreactivity
31 | QVQLVESGGGLVQAGGSLRLSCAASGSTFAYNTMGWYRQAPGKERELVAAISQRGGSTYADTVKGRFTISRDNAKNTVYLQMNSLKPEENAVYYWAADGYTYKFDYWGQGTQVTVSS | low polyreactivity
32 | QVQLVESGGGLVQAGGSLRLSCAASGSTFAYYAMGRYRQAPGKERELVAAISTIAGRTYYADSVKGRFTISRDTAKNSVSLQMNSLNPEDTAFYYCNAYWWFFGGYDYWGQGTQVTVSS | high polyreactivity
33 | QVQLVESGGGLVQAGGSLRLSCAASGSTFAYYAMGWYRKAPGKERELVAAISSGGSTYYADSVKGRFTISRDNAKNTVYLQMNSLKPEDTAVYYCNKLWVGKFKRYEFGYWGQGTQVTVSS | low polyreactivity
34 | QVQLVESGGGLVQAGGSLRLSCAASGSTFAYYAMGWYRQAPGKEREFVAAISTRGGSTYYADSVKGRFTISRDNAKNTLYLQMNSLKPEDTAVYYCAAGYFNYSWRIRFDYWGQGTQVTVSS | high polyreactivity
35 | QVQLVESGGGLVQAGGSLRLSCAASGSTFAYYAMGWYRQAPGKERELVAAINYRATRTYYADSVKGRFTISRDNAKNTVYLQMNSLKPEDTAVYYCAAVSPNTAYDYWGQGTQVTVSS | high polyreactivity
36 | QVQLVESGGGLVQAGGSLRLSCAASGSTFAYYAMGWYRQAPGKERELVAAISWRGGSTYYADSVKGRFTISRDNAKNTVYLHMNSLKPEDTAVYYCATLSAWKASSYDYWGQGTQVTVSS | high polyreactivity
37 | QVQLVESGGGLVQAGGSLRLSCAASGSTFAYYAMGWYRQAPGKERELVAAISWSGGSTYYADSVKGRFTISRDNAKNTVYLQMNSLKPEDTAVYYCNKRNVLDYDYWGQGTQVTVSS | low polyreactivity
38 | QVQLVESGGGLVQAGGSLRLSCAASGSTFAYYAMGWYRQAPGKESELVAAISSGGSTYYADSVKGRFTISRDNAKNTVYLEMFCLKGDDTAVYYCNKLWVGKFKRYEFGYWGQGTQVTVSS | low polyreactivity
39 | QVQLVESGGGLVQAGGSLRLSCAASGSTFAYYSMGWYRQAPGKERELVAAISRTGGSTYYADSVKGRFTISRDNAKNTVYLQMNSLKPEDTAVYYCNARAPVGTFDYDYWGQGTQVTVSS | low polyreactivity
40 | QVQLVESGGGLVQAGGSLRLSCAASGSTFAYYTMGWYRQAPGKERELVAAISASGGSTYYADSVKGRFTISRDFAKNTVYFQMNSLKPEDTAVYYCNAESYLTGWWVDYWGQGTQVTVSS | low polyreactivity
41 | QVQLVESGGGLVQAGGSLRLSCAASGSTFAYYTMGWYRQAPGKERELVAAITSAGRTSYADSVKGRFTISRDNAKNTVYLQMKSLKPDDTAVYYCAKGRKPGYYYWGQGTQVTVSS | high polyreactivity
42 | QVQLVESGGGLVQAGGSLRLSCAASGSTFCFNDMGWYIQAPGKEREFVAAISSIGGSTYYADSVKGRFKISRDNAKNTLYLQMNSLKPEDTAVYYCAVEVVRVYRYDYWGQGTQVTVSS | low polyreactivity
43 | QVQLVESGGGLVQAGGSLRLSCAASGSTFCHYAMGWYRQAPGKERELVAAISWSGGSTSYADSVKGRFTISRDNAKNTVFLQMNSLIPEDTAVYYCNKRQEWFHFPYTRGYYWGQGTQVSVSS | low polyreactivity
